Data reported in the supplement of paper PMC9112550, “Optimization of the antimicrobial peptide Bac7 by deep mutational scanning” (BMC Biology, 2022).

System: Escherichia coli TOP10
Assay: shrunken log2 fold change of peptide-encoding DNA abundance (4.5 h post-induction vs induction); higher = less antimicrobial activity (less host growth inhibition)
Conditions: time post-induction: 4.5 h; library: site-saturation at positions 5, 18, 19, 20
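Note: peptides expressed intracellularly from a pBAD plasmid library in pooled LB shake-flask culture, induced with 0.3% L-arabinose, DNA abundance read by NGS, three biological replicates, DESeq2 with apeglm shrinkage.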

Row | Sequence | shrunken log2 fold change
1 | RRIRKRPPRLPRPRPRPGNPPRP | 0.85
2 | RRIRNRPPRLPRPRPRPGKYPRP | -0.117
3 | RRIRARPPRLPRPRPRPTGVPRP | 0.439
4 | RRIRERPPRLPRPRPRPSEMPRP | -0.16
5 | RRIRQRPPRLPRPRPRPDQLPRP | -0.263
6 | RRIRKRPPRLPRPRPRPYGGPRP | 0.0335
7 | RRIRDRPPRLPRPRPRPHTMPRP | -0.863
8 | RRIRERPPRLPRPRPRPELNPRP | -0.119
9 | RRIRCRPPRLPRPRPRPCECPRP | -0.0911
10 | RRIRDRPPRLPRPRPRPPHNPRP | -0.103
11 | RRIRLRPPRLPRPRPRPKFWPRP | 0.0752
12 | RRIRARPPRLPRPRPRPKIHPRP | -0.0619
13 | RRIRSRPPRLPRPRPRPEKHPRP | -0.211
14 | RRIRNRPPRLPRPRPRPLDAPRP | 0.0657
15 | RRIRTRPPRLPRPRPRPCPIPRP | -0.0712
16 | RRIRERPPRLPRPRPRPERLPRP | 0.171
17 | RRIRMRPPRLPRPRPRPACWPRP | 1.06
18 | RRIRHRPPRLPRPRPRPWTMPRP | -0.344
19 | RRIRGRPPRLPRPRPRPCLDPRP | -0.0991
20 | RRIRARPPRLPRPRPRPPCDPRP | 0.506
21 | RRIRTRPPRLPRPRPRPPWPPRP | 0.356
22 | RRIRRRPPRLPRPRPRPDNPPRP | -0.582
23 | RRIRMRPPRLPRPRPRPHPTPRP | 0.805

Row | Sequence | shrunken log2 fold change
24 | RRIRGRPPRLPRPRPRPSCKPRP | 0.319
25 | RRIRFRPPRLPRPRPRPLDEPRP | -0.132
26 | RRIRPRPPRLPRPRPRPFNYPRP | -0.269
27 | RRIRTRPPRLPRPRPRPYMQPRP | -0.298
28 | RRIRWRPPRLPRPRPRPFVNPRP | -0.483
29 | RRIRLRPPRLPRPRPRPWVIPRP | -0.0649
30 | RRIRYRPPRLPRPRPRPKFNPRP | -1.1
31 | RRIRLRPPRLPRPRPRPHIMPRP | -0.531
32 | RRIRFRPPRLPRPRPRPIHCPRP | -0.138
33 | RRIRIRPPRLPRPRPRPWLEPRP | -0.293
34 | RRIRVRPPRLPRPRPRPQLSPRP | 0.132
35 | RRIRHRPPRLPRPRPRPPRFPRP | 0.578
36 | RRIRVRPPRLPRPRPRPRYQPRP | 0.171
37 | RRIRNRPPRLPRPRPRPYWNPRP | -0.108
38 | RRIRYRPPRLPRPRPRPSCKPRP | -0.908
39 | RRIRERPPRLPRPRPRPVYDPRP | -0.0514
40 | RRIRGRPPRLPRPRPRPTVNPRP | 0.597
41 | RRIRTRPPRLPRPRPRPMNMPRP | -0.24
42 | RRIRDRPPRLPRPRPRPRRQPRP | 0.161
43 | RRIRVRPPRLPRPRPRPNHAPRP | 0.0625
44 | RRIRWRPPRLPRPRPRPTWCPRP | 0.242
45 | RRIRIRPPRLPRPRPRPMTGPRP | -0.4
46 | RRIRERPPRLPRPRPRPYQNPRP | -0.0789

Row | Sequence | shrunken log2 fold change
47 | RRIRGRPPRLPRPRPRPHRLPRP | 0.14
48 | RRIRWRPPRLPRPRPRPGAAPRP | 1.06
49 | RRIRARPPRLPRPRPRPIAKPRP | 0.217
50 | RRIRCRPPRLPRPRPRPHVGPRP | 0.0562
51 | RRIRGRPPRLPRPRPRPLQFPRP | 0.312
52 | RRIRARPPRLPRPRPRPPIMPRP | 0.0549
53 | RRIRFRPPRLPRPRPRPPSLPRP | -0.112
54 | RRIRSRPPRLPRPRPRPMPSPRP | -0.194
55 | RRIRPRPPRLPRPRPRPIYVPRP | -0.348
56 | RRIRHRPPRLPRPRPRPFSQPRP | -0.302
57 | RRIRLRPPRLPRPRPRPHHRPRP | -0.263
58 | RRIRCRPPRLPRPRPRPLWGPRP | -0.26
59 | RRIRMRPPRLPRPRPRPIWGPRP | 0.0405
60 | RRIRRRPPRLPRPRPRPLSYPRP | -0.0226
61 | RRIRHRPPRLPRPRPRPMGEPRP | -0.0135
62 | RRIRCRPPRLPRPRPRPNINPRP | -0.181
63 | RRIRKRPPRLPRPRPRPQYIPRP | 0.102
64 | RRIRYRPPRLPRPRPRPHKHPRP | -0.91
65 | RRIRLRPPRLPRPRPRPIKEPRP | -0.0262
66 | RRIRWRPPRLPRPRPRPQSPPRP | 0.0211
67 | RRIRKRPPRLPRPRPRPLAYPRP | 0.259
68 | RRIRLRPPRLPRPRPRPAVAPRP | 0.552
69 | RRIRARPPRLPRPRPRPCHRPRP | 0.0386

Row | Sequence | shrunken log2 fold change
70 | RRIRGRPPRLPRPRPRPAESPRP | 0.764
71 | RRIRPRPPRLPRPRPRPWAFPRP | 0.144
72 | RRIRERPPRLPRPRPRPLNCPRP | -1.25
73 | RRIRDRPPRLPRPRPRPMQVPRP | 0.0758
74 | RRIRFRPPRLPRPRPRPFYKPRP | -0.311
75 | RRIRDRPPRLPRPRPRPWVRPRP | -0.21
76 | RRIRERPPRLPRPRPRPEPVPRP | -0.00161
77 | RRIRNRPPRLPRPRPRPVGNPRP | -0.00879
78 | RRIRVRPPRLPRPRPRPFNWPRP | -0.498
79 | RRIRYRPPRLPRPRPRPIANPRP | -0.0103
80 | RRIRNRPPRLPRPRPRPFSWPRP | 0.0512
81 | RRIRDRPPRLPRPRPRPKGTPRP | -0.0298
82 | RRIRLRPPRLPRPRPRPKDCPRP | -0.495
83 | RRIRFRPPRLPRPRPRPVHFPRP | -0.263
84 | RRIRRRPPRLPRPRPRPREKPRP | 0.0627
85 | RRIRHRPPRLPRPRPRPRAIPRP | 0.0852
86 | RRIRCRPPRLPRPRPRPCIMPRP | -0.336
87 | RRIRFRPPRLPRPRPRPTPAPRP | 0.951
88 | RRIRERPPRLPRPRPRPTVNPRP | -0.129
89 | RRIRDRPPRLPRPRPRPWTVPRP | -0.168
90 | RRIRFRPPRLPRPRPRPHIWPRP | -0.57
91 | RRIRPRPPRLPRPRPRPILNPRP | -0.339
